We go through three molecules from US8048999B2, “Nuclear reprogramming factor” (Kyoto University, priority 2005, dated 2011).

Assay [1] deals with Nanog-EGFP-IRES-Puro mouse MEFs. The assay is described as follows: iPS cell establishment with Nanog-GFP reporter, puromycin selection. Type of assay: cell-based. The following applies: 4 factors; PD98059 final concentration 25 μM continuously added from the next day of transfection. An excerpt: Studies were made as to whether iPS cells could be established with a reporter other than Fbx15-βgeo. […] artificial chromosome (BAC) containing the Nanog gene in the center was isolated, and then the GFP gene and the puromycin resistance gene were knocked in by recombination in E. coli (FIG. 12A). Subsequently, the above modified BAC was introduced into ES cells to confirm that the cells became GFP-positive in an undifferentiated state specific manner (data not shown). Then, these ES cells were transplanted in mouse blastocysts to create transgenic mice via chimeric mice. In these mice, GFP-positive cells were specifically observed in inner cell masses of the blastocysts or gonads of embryos at 13.5 days after fertilization (FIG. 12B). The gonads were removed from the embryos at 13.5 days after fertilization (hybrid of DBA, 129, and C57BL/6 mice), and MEFs were isolated. The isolated MEFs were confirmed to be GFP-negative (FIG. 13) by flow cytometry. These MEFs were retrovirally transduced with the 4 factors and subjected to puromycin selection, and as a result, a plural number of resistant colonies were obtained. Only about 10 to 20% of the colonies were GFP-positive. When the GFP-positive colonies were passaged, they gave morphology (FIG. 14) and proliferation (FIG. 15) similar to those of ES cells. […]

The test system of assay [2] is MEFs derived from the Fbx15^βgeo/βgeo mouse. Kind of assay: Effect of cytokine-producing STO feeder cells on iPS cell establishment (G418 selection). Type of assay: cell-based. As to conditions: 3 factors other than c-Myc transduced. An excerpt: An effect of cytokine on iPS cell establishment was investigated. Expression vector (pMX retroviral vector) for basic fibroblast growth factor (bFGF) or stem cell factor (SCF) was transduced into feeder cells (STO cells) to establish cells permanently expressing the cytokines. […] As a result, the number of formed colonies increased 20 times or higher on the STO cells producing bFGF (FIG. 11) or SCF (data not shown), as compared with the culture on normal STO cells.

Take `COc1cccc(-c2cc(=O)c3ccccc3o2)c1N` [PD98059]: the “percentage of GFP-positive colonies” value in assay [1] stood at 45%.

B1: bFGF: cytokine permanently expressed by STO feeder cells transduced with pMX expression vector (protein, UniProt P15655 10-154, looked up)
Fibroblast growth factor 2: PALPEDGGAAFPPGHFKDPKRLYCKNGGFFLRIHPDGRVDGVREKSDPHVKLQLQAEERGVVSIKGVCANRYLAMKEDGRLLASKCVTEECFFFERLESNNYNTYRSRKYSSWYVALKRTGQYKLGSKTGPGQKAILFLPMSAKS
As to B1, in assay [2], the “colony formation with the 3 factors other than c-Myc on cytokine-producing STO cells” value is on record as “colony formation was observed”.

B2: SCF: cytokine permanently expressed by STO feeder cells transduced with pMX expression vector (protein, UniProt P20826 26-190, looked up)
Soluble KIT ligand: KEICGNPVTDNVKDITKLVANLPNDYMITLNYVAGMDVLPSHCWLRDMVIQLSLSLTTLLDKFSNISEGLSNYSIIDKLGKIVDDLVLCMEENAPKNIKESPKRPETRSFTPEEFFSIFNRSIDAFKDFMVASDTSDCVLSSTLGPEKDSRVSVTKPFMLPPVAA
As for B2, the “colony formation with the 3 factors other than c-Myc on cytokine-producing STO cells” value in assay [2] is recorded as “colony formation was observed”.
